Results as given in patent US20250243273A1 (FOURTH MILITARY MEDICAL UNIVERSITY, published 2025).

Molecular target: T1, human BASIGIN, native, on human erythrocytes and in human tumour tissue (human, UniProt P35613 22-385)
T1 sequence (looked up): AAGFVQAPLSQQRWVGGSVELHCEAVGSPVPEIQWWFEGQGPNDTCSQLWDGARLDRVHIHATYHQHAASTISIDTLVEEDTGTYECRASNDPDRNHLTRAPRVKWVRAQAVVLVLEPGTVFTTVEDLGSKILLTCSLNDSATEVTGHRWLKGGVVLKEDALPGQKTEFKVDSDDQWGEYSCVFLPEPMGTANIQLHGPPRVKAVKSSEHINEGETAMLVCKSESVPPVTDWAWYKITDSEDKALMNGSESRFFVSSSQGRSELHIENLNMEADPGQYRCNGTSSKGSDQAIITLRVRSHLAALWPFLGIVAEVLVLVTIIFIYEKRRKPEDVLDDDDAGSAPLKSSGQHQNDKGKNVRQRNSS
Assay: cell-based or functional assay

B1: humanized antibody HP6H8-1 (antibody, V domains shown)
VH: EVQLVESGGGLVQPGGSLRLSCAASGFTFSNFWMNWVRQAPGKGLEWVSEIRLKSNNYATHYAESVKGRFTISRDDSKNTLYLQMNSLKTEDTAVYYCTSYDYEYWGQGTLVTVSA
VL: DIQMTQSPSTLSASVGDRVTLSCKASENVGTYVSWYQQKPGKAPKLLIYGASNRYTGVPSRFTGSGSGTDFTLTISSLQPEDFATYYCGQSYSYPFTFGSGTKLEIK
  IC50, in vitro inhibition of Plasmodium falciparum strain 3D7 invasion of human erythrocytes (parasite rate after 72 hrs): 20 µg/mL
  IC50, in vitro inhibition of Plasmodium falciparum strain Dd2 invasion of human erythrocytes (parasite rate after 72 hrs): 40 µg/mL
  IC50, in vitro inhibition of Plasmodium falciparum strain FCC1 invasion of human erythrocytes (parasite rate after 72 hrs): 40 µg/mL
  IC50, in vitro inhibition of Plasmodium falciparum strain Nf54 invasion of human erythrocytes (parasite rate after 72 hrs): 50 µg/mL
